Data from article PMC2948513 (PLoS ONE, 2010).
Non-standard residues stand in square brackets, D forms with d. No end group written: not given here. *: point of attachment. Biotin = O=C1N[C@H]2[C@H](CS[C@H]2CCCCC(=O)*)N1; pS = N[C@@H](COP(=O)(O)O)C(=O)O

Legend:
Ezrin N-terminus, 1-310 [1] = target: Ezrin N-terminus, 1-310 (UniProt P15311); experiment: SPR, peptide on streptavidin chip; conditions: reference: non-phosphorylated NEP-NT peptide; sites S6
[2] = target: PTEN C-terminal domain, 367-403 (UniProt P60484); experiment: SPR, peptide on streptavidin chip; conditions: reference: non-phosphorylated NEP-NT peptide; sites S6
Ezrin N-terminus, 1-310 [3] = target: Ezrin N-terminus, 1-310 (UniProt P15311); experiment: biotin-peptide streptavidin-agarose pull-down, MBP blot; conditions: reference: non-phosphorylated NEP-NT peptide; sites S6
[4] = target: PTEN C-terminal domain, 367-403 (UniProt P60484); experiment: biotin-peptide streptavidin-agarose pull-down, PTEN blot; conditions: reference: non-phosphorylated NEP-NT peptide; sites S6
[5] = target: T1, fusion protein of the maltose binding protein (MBP) and the N-terminus of Ezrin (amino acids 1-310) (human, UniProt P15311 1-310); experiment: SPR; Biacore3000; biotin-labeled NEP peptides coupled to streptavidin (SA) chip to ~1000 RU; HBS-P buffer (10 mM HEPES pH 7.4, 150 mM NaCl, 0.005% Surfactant P20), 25°C, 30 µl/min; reference surface without peptide subtracted; MBP Ezrin-NT 0.05-0.8 µM, GST PTEN-CT 1.6-12.8 µM; conditions: both partners purified
T1 construct: Ezrin, human, N-terminus, amino acids 1-310; Cloned into the EcoRI/SalI sites of pMAL-c2; also called MBP-Ezrin-NT; MBP Ezrin-NT; source: E. coli DH5α, precipitated by Amylose-resin

| KD (Ezrin N-terminus, 1-310 [1]) | KD [2] | binding against the reference (Ezrin N-terminus, 1-310 [3]) | binding against the reference [4] | Kd [5] [nM] | Molecule |
| --- | --- | --- | --- | --- | --- |
| same; reference ∼5.8 | weaker; reference ∼0,71 | same | weaker |  | Neprilysin (NEP, CD10) N-terminal cytoplasmic domain, 2-23 (from UniProt P08473) pSer6 peptide (pNEP-NT) |
|  |  |  |  | ~5.8 | GKSESQMDITDINTPKPKKKQRK(Biotin) (neprilysin (NEP, neutral endopeptidase 24.11, CD10), human, N-terminal cytoplasmic domain, amino acids 2-23; C-terminal lysine that carries the biotin, named in words only; It is surmised that the biotinylated lysine is an extra residue after aa 23; also called NEP-NT; non-phosphorylated NEP-NT; source: synthetic peptide (Peptide Specialty Labs, Heidelberg)) |
|  |  |  |  | ~5.9 | GKSE[pS]QMDITDINTPKPKKKQRK(Biotin) (neprilysin (NEP, neutral endopeptidase 24.11, CD10), human, N-terminal cytoplasmic domain, amino acids 2-23, serine 6 phosphorylated; C-terminal lysine that carries the biotin, named in words only; It is surmised that the biotinylated lysine is an extra residue after aa 23; also called pNEP-NT; phosphorylated NEP-NT; source: synthetic peptide (Peptide Specialty Labs, Heidelberg)) |
